Square brackets hold non-standard residues; d marks the D form. Ends that are not written are not given here.
What was measured:
Test in all cases: radioligand binding
[1] = molecular target: mouse melanocortin-1 receptor (mouse, UniProt Q01727 1-315)
[2] = molecular target: mouse melanocortin-4 receptor (mouse, UniProt P56450 1-332)
[3] = molecular target: mouse melanocortin-3 receptor, Flag-tagged (mouse, UniProt P33033 1-323)
Chain of mouse melanocortin-3 receptor, Flag-tagged (P33033 whole entry): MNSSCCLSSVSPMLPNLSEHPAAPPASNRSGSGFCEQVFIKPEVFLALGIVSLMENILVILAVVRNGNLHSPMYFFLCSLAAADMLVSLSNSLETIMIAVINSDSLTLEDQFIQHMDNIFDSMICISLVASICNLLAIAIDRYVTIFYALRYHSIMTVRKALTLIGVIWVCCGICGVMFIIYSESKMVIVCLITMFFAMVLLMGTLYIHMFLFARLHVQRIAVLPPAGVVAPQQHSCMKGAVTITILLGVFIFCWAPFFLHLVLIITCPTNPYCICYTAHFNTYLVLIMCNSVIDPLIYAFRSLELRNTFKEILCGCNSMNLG

Chain of mouse melanocortin-4 receptor (P56450 whole entry): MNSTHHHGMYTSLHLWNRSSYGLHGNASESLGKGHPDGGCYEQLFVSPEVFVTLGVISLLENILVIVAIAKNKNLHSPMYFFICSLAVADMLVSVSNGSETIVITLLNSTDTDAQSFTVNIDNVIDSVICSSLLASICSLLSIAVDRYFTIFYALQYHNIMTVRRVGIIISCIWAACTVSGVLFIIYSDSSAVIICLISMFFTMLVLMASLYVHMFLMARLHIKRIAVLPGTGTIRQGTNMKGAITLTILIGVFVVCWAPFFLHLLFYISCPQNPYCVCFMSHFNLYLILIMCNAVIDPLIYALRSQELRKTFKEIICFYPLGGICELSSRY
Chain of mouse melanocortin-1 receptor (Q01727 whole entry): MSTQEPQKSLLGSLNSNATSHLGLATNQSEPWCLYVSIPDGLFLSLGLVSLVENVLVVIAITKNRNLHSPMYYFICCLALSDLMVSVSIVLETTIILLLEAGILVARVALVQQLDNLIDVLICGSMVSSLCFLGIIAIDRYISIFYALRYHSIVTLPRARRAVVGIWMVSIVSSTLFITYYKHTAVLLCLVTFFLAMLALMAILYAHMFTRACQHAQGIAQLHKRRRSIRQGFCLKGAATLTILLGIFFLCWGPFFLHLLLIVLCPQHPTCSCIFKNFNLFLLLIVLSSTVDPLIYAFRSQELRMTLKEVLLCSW

B1: compound 4 (CJL-5-35-1): Ac-His-DPhe-Arg-Trp-NH2 scaffold with (Pro-Gly)6 added to the C-terminus (peptide)
peptide: Ac-H[dF]RWPGPGPGPGPGPG-NH2
SMILES: CC(=O)N[C@@H](Cc1c[nH]cn1)C(=O)N[C@H](Cc1ccccc1)C(=O)N[C@@H](CCCNC(=N)N)C(=O)N[C@@H](Cc1c[nH]c2ccccc12)C(=O)N1CCC[C@H]1C(=O)NCC(=O)N1CCC[C@H]1C(=O)NCC(=O)N1CCC[C@H]1C(=O)NCC(=O)N1CCC[C@H]1C(=O)NCC(=O)N1CCC[C@H]1C(=O)NCC(=O)N1CCC[C@H]1C(=O)NCC(N)=O
How did the IC50 [1] turn out when B1 was run?
Its IC50 is 225 nM.

And the IC50 [2]?
Its IC50 is 841 nM.

B2: compound 5 (CJL-1-41): His-DPhe-Arg-Trp-NH2 scaffold with (Pro-Gly)6 added to the N-terminus (peptide)
peptide: PGPGPGPGPGPGH[dF]RW-NH2
modifications: N-terminus assumed
SMILES: N=C(N)NCCC[C@H](NC(=O)[C@@H](Cc1ccccc1)NC(=O)[C@H](Cc1c[nH]cn1)NC(=O)CNC(=O)[C@@H]1CCCN1C(=O)CNC(=O)[C@@H]1CCCN1C(=O)CNC(=O)[C@@H]1CCCN1C(=O)CNC(=O)[C@@H]1CCCN1C(=O)CNC(=O)[C@@H]1CCCN1C(=O)CNC(=O)[C@@H]1CCCN1)C(=O)N[C@@H](Cc1c[nH]c2ccccc12)C(N)=O
Which results are given for B2?
IC50 [2]: 258 nM; IC50 [3]: 8430 nM

B3: compound 6 (CJL-1-31): homobivalent ligand, two His-DPhe-Arg-Trp scaffolds joined by (Pro-Gly)6 (peptide)
peptide: H[dF]RWPGPGPGPGPGPGH[dF]RW-NH2
How did the IC50 [1] turn out when B3 was run?
The IC50 was 27.5 nM.

And the IC50 [2]?
The IC50 was 33 nM.

And the IC50 [3]?
The IC50 was 3250 nM.
